Measured values from the supplement of paper PMC9170038.

Tested on: MS2 coat protein
Assay: apparent KD of MS2 coat protein; designed switch direction (-1 OFF switch, 1 ON switch): -1; higher = weaker reporter binding
Procedure, shortened: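 The apparent KD reported per design is the median over clusters of curve fits to normalised cluster fluorescence. The RNA switches were transcribed on Illumina chips by stalled E. coli RNA polymerase. SNAP-549-labelled MS2 coat protein was titrated from 0.7 or 1.5 nM, doubling up to 3 µM, in Tris-HCl pH 7.5 buffer containing KCl, MgCl2, BSA, DTT, tRNA and Tween-20, with no input, 200 uM small-molecule ligand, or an oligonucleotide input.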

[1] = Eterna round: R95, input ligand: microRNA oligo, concentration not stated
[2] = input ligand: microRNA oligo, concentration not stated
[3] = Eterna round: R95, input ligand: FMN 200 uM
[4] = Eterna round: R95, input ligand: none

| Sequence | apparent KD of MS2 coat protein (input ligand: FMN 200 uM) [nM] | apparent KD of MS2 coat protein (input ligand: none) [nM] | apparent KD of MS2 coat protein [1] [nM] | further results |
| --- | --- | --- | --- | --- |
| GAGGACUUAGGAUAUACAUGAGGAUCACCCAUGUCCCUAAGCAUGCGACAGCCCUCGAGUAGAAGGGAGGACCA [Eternabot (Original) Solution 3] (Eterna round: R97, puzzle: Exclusion 3) | 14.8 | 14.7 |  |  |
| CAGCUGAAAGUCAGGAUAUCUAGAGCUUCGGCUCUAGAGAAGGGACAUGAGGAUCACCCAUGUGAUUACAGCUG [BmEx4/6-A1] (Eterna round: R97, puzzle: Brourd's mod of Exclusion 4) | 108 | 60.6 |  |  |
| AAGUAUAGAGGAUAUAGUAGUUACAACAUGAGGAUCACCCAUGUUCUUCAUAACGUAGUUCUAGAAGGCUGAUAAA [EX-5 Malc#28] (puzzle: Exclusion 5) |  |  | 172 |  |
| GGUCGUAGACAGGAUAUGCGGCAAAGAAACAAAGCAGAAGGGUCUACUUGAGGAUCACCCAAGUGGGCGGUUAA [Atrele] (Eterna round: R97, puzzle: Exclusion 6) | 153 | 20.4 |  |  |
| GAUCAUGCAGGAUAUACAUGGAACAUUAAAUCAUGAAUUCUACAUGAGGAUCACCCAUGUAGAAGGGCAUGAUC [Omei Ex2 A17] (Eterna round: R97, puzzle: Exclusion 2) | 169 | 72.1 |  |  |
| AAGGAUAGAGGAUAUACAUAGAUACAGAUUCAUGUAGAACUACAUGAGGAUCACCCAUGUAGAAGGCUAUCCUA [Mat - Same state - Mayanna Mod - D121] (Eterna round: R96, puzzle: Exclusion 2) | 316 | 33.3 |  | apparent KD of MS2 coat protein [2]: 24.8 nM |
| UGUCAGUCAGGAUAUGCAUACGUAGACAUGAGGAUCACCCAUGUGACGUGGGCCUGGUGUGUAGAAGGGACGAACA [EX5 #80] (Eterna round: R97, puzzle: Exclusion 5) | 48.5 | 19.5 |  |  |
| UAAAUGUGAGGAUAUCAGGUGUGCUAGAAUACUGGUACAUCUGAGAAGGCACAUGAGGAUCACCCAUGUUCCUU [Mat - Exclusion 4 - Mod of JL - D53] (puzzle: Exclusion 4) |  |  | 15.8 |  |
| CAAAUCUGAGGAUAUCGAUAUUUGUACAUGAGGAUCACCCAUGUCCUAUUUAUAAAAUCCCGAGAAGGCAGUGUAU [JR_E5_Sub095] (puzzle: Exclusion 5) |  |  | 16.2 |  |
| GAGAAGUGAGGAUAUGCGGUAAGGAUGAAAGGAAGGAAUGAGUAGAAGGCACAUGAGGAUCACCCAUGUAGAGU [JR_Exclu4_Sub081] (puzzle: Exclusion 4) |  |  | 18.5 | apparent KD of MS2 coat protein [3]: 19.5 nM; apparent KD of MS2 coat protein [4]: 21.1 nM |
| CACCCUUCAGGAUAUACAUGAGGAUCACCCAUGUGUUCCAGCUAGGAAACUAGCAAAUGUAGAAGGGAAGGGUG [Mat - Exclusion 3 - JL Mod - D5] (Eterna round: R97, puzzle: Exclusion 3) | 452 | 108 |  |  |
| UAUUAUCAAGUAAGAUCCUACAUGAGGAUCACCCAUGUGCUCGUCUUAUAAGGUACUGUGACGAAAGUCACGGUACC [Sensor 3, v1 - 74] (puzzle: Sensor v3, turn-off variant 1) |  |  | 332 | apparent KD of MS2 coat protein [3]: 31.3 nM; apparent KD of MS2 coat protein [4]: 33.8 nM |
| UAAUUGUGAGGAUAUUCGUUGUUCUCGGAGACGAGAAUAACGGAGAAGGCACAUGAGGAUCACCCAUGUUCCUU [Mat - Exclusion 4 - JL Mod - D13] (Eterna round: R97, puzzle: Exclusion 4) | 98.4 | 18 |  |  |
| GCUUGAGCAGGAUAUACAUGAGGAUCACCCAUGUGCUUGAGCUUGAUCGAGUUCGAGUGUAGAAGGGUUCGAGU [-26.9, -23.9 kcal, 24% A, 1 bis, 1 bis] (Eterna round: R97, puzzle: Exclusion 3) | 20.8 | 19.7 |  |  |
| CCUUUGUCAGGAUAUCAGAACACGCCCGUAGGGAGUGCAAAUGAGAAGGGACAUGAGGAUCACCCAUGUACAGA [Leonveti] (puzzle: Exclusion 4) |  |  | 29.4 |  |
| GGUCAAGAGCAGCUCCGCGCUGCCAUUGACCGCUCAUUUACAUGAGGAUCACCCAUGUUUUUUGCUCGUCUUAUUAC [Somabi] (puzzle: Sensor v3, turn-off variant 2) |  |  | 53.2 | apparent KD of MS2 coat protein [3]: 18.5 nM; apparent KD of MS2 coat protein [4]: 18.8 nM |
| GUUUCACAUGAGGAUCACCCAUGUGAGGAUAUGGACUUUUUAGUAAUAAUUGUUGGGUUCAGAAGGCGCGUGAU [JR_Exc1_Sub005] (Eterna round: R97, puzzle: Exclusion 1) | 53.1 | 44.7 |  |  |
| GAAAAGUGAGGAUAUGGUAAAAGAAAAAGAAAAAGAAAACUCCAGAAGGCACAUGAGGAUCACCCAUGUGAAAG [salish99_ex4_r3_006] (puzzle: Exclusion 4) |  |  | 16.2 | apparent KD of MS2 coat protein [3]: 15.7 nM; apparent KD of MS2 coat protein [4]: 15.8 nM |

| Sequence | apparent KD of MS2 coat protein (input ligand: FMN 200 uM) [nM] | apparent KD of MS2 coat protein (input ligand: none) [nM] | apparent KD of MS2 coat protein [1] [nM] | further results |
| --- | --- | --- | --- | --- |
| GCUGCAAGAGGAUAUACAUGAGGAUCACCCAUGUGGGAUCGCGUUCUGGAUCAGGACUGUAGAAGGUUUGUGCG [Eternabot (L1) Solution 63] (Eterna round: R97, puzzle: Exclusion 3) | 286 | 91.3 |  |  |
| UAUAAACAUGAGGAUCACCCAUGUGAGGAUAUCUAAACCAGAGCGGAUCUCUGGACCAAGAGAAGGUGCAUGGU [ElNandoxlusion 10 - Jieux - Exclusion 1] (Eterna round: R97, puzzle: Exclusion 1) | 66.9 | 31.7 |  |  |
| CUAUUGGCAGGAUAUGCUUUUUUUGACAUGAGGAUCACCCAUGUGAUGCAUUUUGGGUUUGCAGAAGGGCCUGAGU [JR_E5_Sub037] (puzzle: Exclusion 5) |  |  | 64.9 |  |
| UCGUGUCGAGAGGAUAUCUAGGACACCCUUCCAAGAGAAGGCUUGACAUGAGGAUCACCCAUGUACGGGUAAAU [EX6 A.9] (Eterna round: R97, puzzle: Exclusion 6) | 25.6 | 39.9 |  |  |
| CUCAUGUUGGAGGAUAUAUUUGUCAACCGACCGAUAGAAGGCCACACAUGAGGAUCACCCAUGUCAUCCGGAGA [Eternabot (Original) Solution 50] (Eterna round: R97, puzzle: Exclusion 6) | 28.3 | 255 |  |  |
| CCAAGCUGUGUGAGGAUAUGCUGAACCUUGGUUCAGCAGAAGGCACAUGAGGAUCACCCAUGUGAAGAGCUUGG [Mat - Exclusion 4 - JL Mod - D96] (puzzle: Brourd's mod of Exclusion 4) |  |  | 16.6 |  |
| AAAAGGCAAGCAUGAUCCCACAUGAGGAUCACCCAUGUGUUCGUCUUAUAGGCUGCUGAGGCUUUUGCCUCGGUGGC [LRO Sensor-off var1-05 loose mod of D91 from Mat747] (Eterna round: R97, puzzle: Sensor, turn-off variant 1) | 587 | 728 |  |  |
| CUGAGCAGACGGAGAUCCCACAUGAGGAUCACCCAUGUCUCAAAAGCUUUUUGCUUGUCUUAUUCUCCUCUGUUCUC [Arorza] (Eterna round: R96, puzzle: Sensor v3, turn-off variant 1) | 13.7 | 15.8 |  | apparent KD of MS2 coat protein [2]: 72.2 nM |
| GAGGAACAUGAGGAUCACCCAUGUAAGGAUAUGCAAAGAGAGGUAGUAGAAGGAGAAGGCAGAAGGUACAAGGA [JR_Exclu1_Sub074] (puzzle: Exclusion 1) |  |  | 36.1 | apparent KD of MS2 coat protein [3]: 47.7 nM; apparent KD of MS2 coat protein [4]: 50 nM |
| UAGUGGUUACGUUGGAGUUGUAUGAGCGGAGGCUCUGUGACAUGAGGAUCACCCAUGUAGCUUUUUGCUCGUCUUAA [JR_SV3TOV2_Sub039] (puzzle: Sensor v3, turn-off variant 2) |  |  | 41.5 | apparent KD of MS2 coat protein [3]: 22.5 nM; apparent KD of MS2 coat protein [4]: 22.6 nM |
| UUAAUUAAUUAACGCAGCAAGAUCACAUGAGGAUCACCCAUGUAGGAUAUCAGCUCGUUUAGAGCUGAGAAGGACAUAGCUGCG [ExNG3/1-A2] (Eterna round: R96, puzzle: Exclusion NG 3) | 87.6 | 18 |  | apparent KD of MS2 coat protein [2]: 11.1 nM |
| UAGAAUCGAGGAUAUACAUGAGGAUCACCCAUGUGUUGCCGCGUGAUGUGUUUGUCAGGUAGAAGGCGAUUAUA [Exclusion 3 - Mod of Jieux's Gilly Gone Silly 23 v.8] (puzzle: Exclusion 3) |  |  | 63.8 |  |
| GUUAUCGCAGGAUAUUAGUACUUGUACAUGAGGAUCACCCAUGUUUAUUGGGACUAAGAAUAAGAAGGGCGAUGAA [JR_Ex5_Sub004] (Eterna round: R97, puzzle: Exclusion 5) | 21 | 17.8 |  |  |
| UUAGAUUAUUGAGGAUAUGGAUAUUUUUAUUAACCAGAAGGCAAACUCAACAUGAGGAUCACCCAUGUAUAAAGGGUAUUAGUU [JR_ExcNG1_Sub098] (Eterna round: R96, puzzle: Exclusion NG 1) |  |  |  | apparent KD of MS2 coat protein [2]: 71.2 nM |
| GUUUGCGCAGGAUAUACUCCUCCAUGUUAAGAGCAUGUGCGACAUGAGGAUCACCCAUGUAGAAGGGCGAGACG [Eternabot (L2) Solution 8] (Eterna round: R97, puzzle: Exclusion 2) | 194 | 345 |  |  |
| AACUUCUGAGGAUAUACAUAGAUUUACAUGAGGAUCACCCAUGUUCCUCUAUGUAUAAAUGUAGAAGGCAGAAGAA [JL-ex5-4.37 Malcolm mod] (Eterna round: R97, puzzle: Exclusion 5) | 88.6 | 18.3 |  |  |
| ACCUUACAUGAGGAUCACCCAUGUCAGGAUAUCUCGGGCGGCUGAGGACCAGCCACCCAGAGAAGGGACGAGGA [Qumaraanan] (puzzle: Exclusion 1) |  |  | 11.9 | apparent KD of MS2 coat protein [3]: 15 nM; apparent KD of MS2 coat protein [4]: 15.7 nM |
